Test results as given in patent publication EP4786493A1.
pEC50, pIC50, pKd: −log10 of the molar value.

Experiments:
[1] = target: human Claudin 18.2 expressed on cells (HEK293/human Claudin 18.2; CHO-K1/human Claudin 18.2) (human) (UniProt P56856); assay: cell-based or functional assay
[2] = target: human Claudin 18.2 expressed on cells (HEK293/human Claudin 18.2; CHO-K1/human Claudin 18.2) (human) (UniProt P56856); assay: flow cytometry on HEK293 cells expressing human Claudin 18.2
[3] = target: recombinant human Claudin 18.2 protein (GenScript, Z03504) (human) (UniProt P56856); assay: SPR Biacore 8K, antibody captured via Fc, human Claudin 18.2 protein as analyte
[4] = target: recombinant human Claudin 18.2 protein (GenScript, Z03504) (human) (UniProt P56856); assay: indirect ELISA, plate coated with recombinant human Claudin 18.2, anti-human IgG Fc-HRP detection
[5] = target: recombinant human Claudin 18.2 protein (GenScript, Z03504) (human) (UniProt P56856); assay: competition ELISA on coated recombinant human Claudin 18.2; unlabelled IMAB362 against biotinylated IMAB362 (0.72 µg/ml)

ADCC reporter gene assay (CHO-K1/Claudin 18.2 target cells, GS-J2C/CD16A 158V effector cells): EC50 [1] | ADCC reporter gene assay (CHO-K1/Claudin 18.2 target cells, GS-J2C/CD16A 158V effector cells): Top [1] | CDC on CHO-K1/human Claudin 18.2 cells: EC50 [1] | CDC on CHO-K1/human Claudin 18.2 cells: Top [1] | pEC50 [2] | pKd [3] | pEC50 [4] | pIC50 [5] | Substance
352 nM | 90500 | 23.7 | 5.61% | – | – | – | – | Human IgG1 (antibody)
0.758 nM | 213000 | – | 93% | 8.11 | 7.41 | 8.81 | 8.75 | Zolbetuximab (IMAB362, HuIgG1) (antibody)
